Entries after “also recorded” stand apart in the source; their conditions may differ.
Key:
PANC-1 cells = experiment: Cell spheroid-forming assay, rHSP90α-induced PANC-1 spheroids; assay type: cell-based, human; conditions: 15 μg/ml rHSP90α plus 10 μg/ml antibody
Description: One thousand cancer cells were seeded onto each well of 24-well plates pre-coated with a 4-mm thick layer of 0.5% agarose. After incubation 24 h with serum-free medium at 37° C. plus a 5% CO2 humidified atmosphere, cells were added with PBS or 15 μg/ml of rHSP90α in the absence or presence of 10 μg/ml of control IgG or the tested anti-HSP90α antibody. The incubation was kept for 10-14 days with supplements of some fresh serum-free medium every 3 days. Finally, the cell spheroids characterized by tight, non-adherent, and >100 μm in diameter were photographed and counted under an Olympus IX 71 inverted microscope (Center Valley, PA, USA). The spheroid formation % was calculated by the formula: (number of cell spheroids/1000)×100%.

[1] = tested on: ARPE-19 retinal pigmented epithelial cells; experiment: Retinal cell toxicity assay (MTS); assay type: cell-based, human; conditions: 72 h, up to 594.3 nM (100 μg/ml)
Description: ARPE-19 cells were seeded onto 96-well plates at a density of 4000 cells per well, and then treated in triplicate with various concentrations of 17-AAG or anti-HSP90α antibody HH01 for 72 h. The 3-(4,5-dimethylthiazol-2-yl)-5-(3-carboxymethoxyphenyl)-2-(4-sulfophenyl)-2H-tetrazolium (MTS; Sigma-Aldrich) assay was employed and OD490 was measured to evaluate cell viability upon each treatment.

[2] = tested on: Panc 02 plus EndoMT cell grafts; experiment: Therapeutic efficacy in desmoplastic mouse PDAC transplant model; assay type: in vivo; conditions: 5 mg/kg IV, 3 times at 7-day intervals from Day-20
Description: (§1) Mouse experiments were performed with the permission of the Institutional Animal Care and Use Committee of National Health Research Institutes (NHRI-IACUC-106031-A, 109022-M2-S02, and 109196-A). To establish a desmoplastic tumor transplant model, C57BL/6 mice at 12 weeks of age were subcutaneously inoculated with a mix of Panc 02 cells and EndoMT-derived CAFs (i.e. OPN-treated 3B-11 cells). See Fan C S, Chen L L, Hsu T A, et al. Endothelial-mesenchymal transition harnesses HSP90α-secreting M2-macrophages to exacerbate pancreatic ductal adenocarcinoma. J Hematol Oncol 2019;12:138; and Chua K V, Fan C S, Chen L L, Chen C C, Hsieh S C, Huang T S. Octyl gallate induces pancreatic ductal adenocarcinoma cell apoptosis and suppresses endothelial-mesenchymal transition-promoted M2-macrophages, HSP90α secretion, and tumor growth. Cells 2020;9(1):91. Sizes of developing tumors were superficially measured with a Vernier caliper, and tumor volumes were calculated with the formula ½×length×width^2. Real tumors were weighed when mice were sacrificed. To establish a desmoplastic tumor transplant model in humanized mice, NOD-SCID IL2R^null (ASID) mice transplanted with human hematopoietic stem cells (hHSC) were subcutaneously inoculated with a mix of PANC-1 cells and OPN-treated HUVECs. The employed hHSC-transplanted ASID mice were produced from the National Laboratory Animal Center (Taipei, Taiwan) and all contained human CD45^+ cell levels more than 38% of total lymphocytes. To establish an M2-macrophage-exacerbated mouse PDAC model, C57BL/6 mice were subcutaneously inoculated with a mix of Panc 02 cells and rHSP90α-treated BMDMs. Additionally, LSL-KrasG12D/Pdx1-Cre transgenic mice were adopted as a spontaneously PDAC-developing mouse model to evaluate the therapeutic efficacy of HH01 antibody. LSL-KrasG12D and Pdx1-Cre breeder mice were obtained from the Mouse Models of Human Cancers Consortium Repository of the National Cancer Institute (Frederick, Maryland, USA). LSL-KrasG12D mice were crossed with Pdx1-Cre mice to generate LSL-KrasG12D/Pdx1-Cre mice.
For assaying the HSP90α-binding activities of the prepared antibodies, 96-well plates were coated with 12.5 ng/ml of rHSP90α in the capture buffer (BioLegend, San Diego, CA, USA) by overnight incubation at 4° C. The coated plates were washed twice with PBST and then blocked with PBST plus 3% bovine serum albumin (BSA). […] The reactions were stopped by the addition of 0.5 M H2SO4, and OD450 values were measured by an Infinite M200 microplate reader (TECAN, Männedorf, Switzerland). Additionally, the immunoglobulin (IgG) isotype characterization of anti-HSP90α antibodies was performed by using the Mouse Ig Isotyping ELISA Ready-Set-Go!™ Kit (eBioscience™, Thermo Fisher Scientific, Waltham, MA, USA). […]

[3] = tested on: Panc 02 plus rHSP90α-treated BMDM cell grafts; experiment: Therapeutic efficacy in M2-macrophage-exacerbated mouse PDAC model; assay type: in vivo
Description: as §1
For assaying the HSP90α-binding activities of the prepared antibodies, 96-well plates were coated with 12.5 ng/ml of rHSP90α in the capture buffer (BioLegend, San Diego, CA, USA) by overnight incubation at 4° C. The coated plates were washed twice with PBST and then blocked with PBST plus 3% bovine serum albumin (BSA). The prepared antibodies were applied and incubated 2 h at room temperature. After three washes with PBST, horseradish peroxidase-conjugated secondary antibody was added and incubated at 37° C. for another 1 h. After three washes, 0.3 mg/ml of 3,3′,5,5′-tetramethylbenzidine in 0.015% H2O2 was added into each well and incubated in the dark at room temperature for 10 min. The reactions were stopped by the addition of 0.5 M H2SO4, and OD450 values were measured by an Infinite M200 microplate reader (TECAN, Männedorf, Switzerland). Additionally, the immunoglobulin (IgG) isotype characterization of anti-HSP90α antibodies was performed by using the Mouse Ig Isotyping ELISA Ready-Set-Go!™ Kit (eBioscience™, Thermo Fisher Scientific, Waltham, MA, USA). The ELISA protocol was also used to assay the secreted HSP90α levels of mouse serum samples as described previously. See Chen J S, Hsu Y M, Chen C C, Chen L L, Lee C C, Huang T S. Secreted heat shock protein 90α induces colorectal cancer cell invasion through CD91/LRP-1 and NF-κB-mediated integrin αV expression. J Biol Chem 2010;285(33):25458-66.
Mouse tissue sections with a 4-μm thickness were deparaffinized by xylene and rehydrated in graded ethanol dilutions. Antigen retrieval was performed by heating the sections for 15 min in 10 mM of citrate buffer, pH 6.0, under high pressure. The endogenous peroxidase activity was blocked by 0.3% H2O2. Before staining, the sections were blocked 30 min with PBS plus 3% BSA at room temperature in a humidified chamber. […]

[4] = Pharmacokinetic assay in male mice; conditions: IV single dose 10 mg/kg
Description: Food and water were available ad libitum at all times. For determination of the serum exposure levels of HH01 antibody, blood samples were collected at Day-0.04, 0.08, 0.25, 1, 2, 3, 7, 9, 14, 16, 18, 21, 23, 25, 35, 42, 49, 56, and 63 post administration.

[5] = 5 mg/kg from Day-27, second dose after 7 days
[6] = immunohistofluorescent staining of tumor tissues

B1: HH01: humanized anti-HSP90α IgG1 antibody, mutant of Clone-2-chimera; VH SEQ ID NO: 12, VL SEQ ID NO: 17 (antibody, V domains shown)
VH: EVQLVESGGGLVQPGGSLRLSCAASGFTFKTYAMNWVRQAPGQGLEWVARIRSKSRNYATYYADSVKDRFTISRDDSKNQFYLQMNNLRTEDTAVYYCVVGGSGFDYWGQGTTLTVSS
VL: DVVMTQTPLSLPVSLGDQASISCRSSQSIVHSNGNTYLEWYLQKPGQSPQLLIYKVSNRFSGVPDRFSGSGSGTDFTLTISSVEAEDLGVYYCFQGSHVPWTFGGGTKLEIK
modifications: Heavy chain variable region; Light chain variable region
**Q.** With B1 as the molecule, how does the “suppression of rHSP90α-induced spheroid formation of PANC-1 cells” value (PANC-1 cells) read?
**A.** most outstanding efficacy

**Q.** What about the “cytotoxicity in ARPE-19 cells” value [1] of the same molecule?
**A.** did not cause any obvious cytotoxicity; also recorded: not cytotoxic

**Q.** What about the “serum HSP90α levels” value [2] of the same molecule?
**A.** significant decreases

**Q.** And the tumor desmoplasia [2]?
**A.** significant decreases

**Q.** And the “tumor growth by weight on Day-41” value [2]?
**A.** indeed repressed

**Q.** And the tumor growth kinetics [2]?
**A.** totally suppressed

**Q.** What about the “elevation of serum HSP90α levels” value [3, 5] of the same molecule?
**A.** significantly suppressed

**Q.** And the tumor volume [3, 5]?
**A.** drastic tumor shrinkage upon HH01 treatment was observed immediately after 3 days

**Q.** What about the “tumors on Day-42” value [3, 5] of the same molecule?
**A.** shrank significantly

**Q.** And the “CD4^+TNF-α^+ (effective T) cells” value [3, 6]?
**A.** both increased

**Q.** And the “CD8^+TNF-α^+ (cytotoxic T) cells” value [3, 6]?
**A.** both increased

**Q.** What about the “F4/80^+Arginase1^+ (M2) cells” value [3, 6] of the same molecule?
**A.** decrease

**Q.** And the “F4/80^+iNOS^+ (M1) cells” value [3, 6]?
**A.** increase

**Q.** What about the “CD4^+ and CD8^+ cell levels in tumor (immunohistochemistry)” value ([3]; tumor samples) of the same molecule?
**A.** effectively restored

**Q.** What about the “M2-macrophages in tumor (CD163, CD204 immunohistochemistry)” value ([3]; tumor samples) of the same molecule?
**A.** M2-macrophage reduction

**Q.** And the clearance rate [4]?
**A.** 4.3 mL/day/kg

**Q.** What about the “volume in steady state” value [4] of the same molecule?
**A.** 80 mL/kg
